Reference: article PMC9482650, “Quantitative fragmentomics allow affinity mapping of interactomes” (Nature Communications, 2022)

Tests used:
Experiment in all cases: holdup assay
Parameters in all cases: key: below the threshold = too weak to quantify, mostly under pKd 3.1 to 4
MAGI1_3, Q96QZ7 = target: MAGI1_3, Q96QZ7
Inadl_7, Q8NI35 = target: Inadl_7, Q8NI35
PARD3_1, Q8TEW0 = target: PARD3_1, Q8TEW0
SHROOM4, Q9ULL8 = target: T1, SHROOM4, Q9ULL8
T1 sequence (Q9ULL8 5-102, limits assumed, looked up): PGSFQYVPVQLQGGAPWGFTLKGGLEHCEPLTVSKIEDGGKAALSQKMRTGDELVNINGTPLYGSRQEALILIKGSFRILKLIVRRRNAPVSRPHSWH

MAGI3_5, Q5TCQ9 = target: MAGI3_5, Q5TCQ9
MAGI3_3, Q5TCQ9 = target: MAGI3_3, Q5TCQ9
SHANK2, Q9UPX8 = target: T2, SHANK2, Q9UPX8
T2 sequence (Q9UPX8 621-730, limits assumed, looked up): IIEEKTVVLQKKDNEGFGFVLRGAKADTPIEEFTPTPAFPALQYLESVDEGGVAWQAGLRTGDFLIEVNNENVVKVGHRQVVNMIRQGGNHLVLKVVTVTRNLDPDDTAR

SHROOM2, Q13796 = target: T3, SHROOM2, Q13796
T3 sequence (Q13796 21-118, limits assumed, looked up): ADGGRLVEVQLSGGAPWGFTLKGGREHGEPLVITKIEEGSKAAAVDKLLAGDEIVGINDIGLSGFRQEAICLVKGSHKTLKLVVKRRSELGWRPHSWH

RGS3, P49796-9 = target: RGS3, P49796-9
PARD6B, Q9BYG5 = target: T4, PARD6B, Q9BYG5
T4 sequence (Q9BYG5 152-260, limits assumed, looked up): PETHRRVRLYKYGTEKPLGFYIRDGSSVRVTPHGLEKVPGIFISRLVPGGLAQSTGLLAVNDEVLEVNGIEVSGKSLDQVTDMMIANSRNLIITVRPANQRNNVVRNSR

MAGI1_4, Q96QZ7 = target: MAGI1_4, Q96QZ7
PDZD2_5, O15018 = target: T5, PDZD2_5, O15018
T5 sequence (O15018 2617-2716, limits assumed, looked up): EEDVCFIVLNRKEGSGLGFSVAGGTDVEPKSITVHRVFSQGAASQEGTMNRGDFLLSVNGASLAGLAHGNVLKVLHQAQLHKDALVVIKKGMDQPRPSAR

GRIP1_1, Q9Y3R0 = target: T6, GRIP1_1, Q9Y3R0
T6 sequence (Q9Y3R0 48-146, limits assumed, looked up): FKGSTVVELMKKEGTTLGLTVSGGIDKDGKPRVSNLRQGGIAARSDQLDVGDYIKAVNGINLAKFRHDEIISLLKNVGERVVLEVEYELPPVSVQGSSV

PARD3B_3, Q8TEW8 = target: PARD3B_3, Q8TEW8
PTPN13_5, Q12923 = target: T7, PTPN13_5, Q12923
T7 sequence (Q12923 1877-1975, limits assumed, looked up): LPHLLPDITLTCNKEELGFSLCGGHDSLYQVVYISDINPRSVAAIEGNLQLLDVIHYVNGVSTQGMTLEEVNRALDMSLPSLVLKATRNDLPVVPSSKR

LNX2_4, Q8N448 = target: T8, LNX2_4, Q8N448
T8 sequence (Q8N448 595-690, limits assumed, looked up): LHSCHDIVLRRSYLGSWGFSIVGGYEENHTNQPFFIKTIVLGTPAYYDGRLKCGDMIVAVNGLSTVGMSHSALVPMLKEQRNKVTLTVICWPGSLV

INTU, Q9ULD6 = target: T9, INTU, Q9ULD6
T9 sequence (Q9ULD6 180-273, limits assumed, looked up): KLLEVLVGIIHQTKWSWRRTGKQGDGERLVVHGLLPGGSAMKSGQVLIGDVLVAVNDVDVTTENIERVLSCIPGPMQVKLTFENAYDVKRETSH

SCRIB_4, Q14160 = target: SCRIB_4, Q14160
CNKSR3, Q6P9H4 = target: CNKSR3, Q6P9H4
MPDZ_13, O75970 = target: T10, MPDZ_13, O75970
T10 sequence (O75970 1982-2070, limits assumed, looked up): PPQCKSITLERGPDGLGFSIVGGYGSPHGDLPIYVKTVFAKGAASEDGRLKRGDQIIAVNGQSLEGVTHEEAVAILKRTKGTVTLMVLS

USH1C_3, Q9Y6N9 = target: T11, USH1C_3, Q9Y6N9
T11 sequence (Q9Y6N9 447-547, limits assumed, looked up): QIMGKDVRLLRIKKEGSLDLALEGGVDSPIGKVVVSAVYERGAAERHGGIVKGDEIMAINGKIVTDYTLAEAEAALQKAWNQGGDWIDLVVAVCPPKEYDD

SNTB2, Q13425 = target: T12, SNTB2, Q13425
T12 sequence (Q13425 110-208, limits assumed, looked up): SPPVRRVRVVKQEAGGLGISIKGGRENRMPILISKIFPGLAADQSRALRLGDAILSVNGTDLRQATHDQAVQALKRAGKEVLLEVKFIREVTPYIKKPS

USH1C_1, Q9Y6N9 = target: T13, USH1C_1, Q9Y6N9
T13 sequence (Q9Y6N9 82-179, limits assumed, looked up): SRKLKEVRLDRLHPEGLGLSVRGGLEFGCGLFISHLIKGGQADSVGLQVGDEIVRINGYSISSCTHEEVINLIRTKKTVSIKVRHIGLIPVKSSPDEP

PREX1_1, Q8TCU6 = target: PREX1_1, Q8TCU6
[1] = plain residues with an end cap or a label only (N-terminal biotin on a linker: ttds)
[2] = plain residues with an end cap or a label only (N-terminal biotin on a linker: none)

Sequence of SCRIB_4, Q14160 (Q14160 1095-1204): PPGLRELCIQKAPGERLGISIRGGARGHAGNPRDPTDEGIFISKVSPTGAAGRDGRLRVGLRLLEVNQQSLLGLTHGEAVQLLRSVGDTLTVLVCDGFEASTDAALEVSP
Sequence of PARD3B_3, Q8TEW8 (Q8TEW8 490-594): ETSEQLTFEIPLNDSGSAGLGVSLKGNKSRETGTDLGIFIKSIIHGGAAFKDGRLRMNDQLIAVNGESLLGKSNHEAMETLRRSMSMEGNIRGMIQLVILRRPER
Sequence of MAGI3_5, Q5TCQ9 (Q5TCQ9 847-941): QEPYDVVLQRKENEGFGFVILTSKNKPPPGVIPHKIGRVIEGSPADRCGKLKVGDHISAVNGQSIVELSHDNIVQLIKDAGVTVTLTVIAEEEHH
Sequence of PARD3_1, Q8TEW0 (Q8TEW0 264-372): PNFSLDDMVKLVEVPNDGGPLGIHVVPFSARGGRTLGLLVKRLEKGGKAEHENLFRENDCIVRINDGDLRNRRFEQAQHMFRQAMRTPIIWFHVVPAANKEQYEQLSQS
Sequence of MAGI3_3, Q5TCQ9 (Q5TCQ9 572-655): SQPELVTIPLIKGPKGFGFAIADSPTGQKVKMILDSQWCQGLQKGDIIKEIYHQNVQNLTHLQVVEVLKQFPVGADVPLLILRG
Sequence of CNKSR3, Q6P9H4 (Q6P9H4 203-303): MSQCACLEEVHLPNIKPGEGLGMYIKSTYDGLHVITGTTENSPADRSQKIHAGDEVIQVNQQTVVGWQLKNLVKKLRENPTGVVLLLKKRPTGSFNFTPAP
Sequence of Inadl_7, Q8NI35 (Q8NI35 1219-1332): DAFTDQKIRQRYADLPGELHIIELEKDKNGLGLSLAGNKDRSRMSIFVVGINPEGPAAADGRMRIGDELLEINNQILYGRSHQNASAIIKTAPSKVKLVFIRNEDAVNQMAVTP
Sequence of MAGI1_3, Q96QZ7 (Q96QZ7 638-725): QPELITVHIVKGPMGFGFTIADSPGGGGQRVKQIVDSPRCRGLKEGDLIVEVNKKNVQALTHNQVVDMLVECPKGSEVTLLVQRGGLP
Sequence of PREX1_1, Q8TCU6 (Q8TCU6 608-718): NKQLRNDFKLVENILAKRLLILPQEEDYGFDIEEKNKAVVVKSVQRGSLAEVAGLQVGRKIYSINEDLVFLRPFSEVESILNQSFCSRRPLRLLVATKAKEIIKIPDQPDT
Sequence of MAGI1_4, Q96QZ7 (Q96QZ7 other isoform, or with tags, fused parts or gaps): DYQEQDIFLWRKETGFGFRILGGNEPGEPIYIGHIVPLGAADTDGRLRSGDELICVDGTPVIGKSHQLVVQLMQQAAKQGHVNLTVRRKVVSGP
Sequence of RGS3, P49796-9 (P49796 other isoform, or with tags, fused parts or gaps): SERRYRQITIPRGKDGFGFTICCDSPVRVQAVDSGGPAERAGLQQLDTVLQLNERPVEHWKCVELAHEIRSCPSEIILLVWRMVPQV

B1: FRMPD4, Q14CM0 (peptide)
chain: RLPKIKETTV
pKd (MAGI1_3, Q96QZ7; [1]): 4.82 | pKd (Inadl_7, Q8NI35; [1]): below the threshold | pKd (PARD3_1, Q8TEW0; [1]): below the threshold | pKd (SHROOM4, Q9ULL8; [1]): below the threshold | pKd (MAGI3_5, Q5TCQ9; [1]): below the threshold | pKd (MAGI3_3, Q5TCQ9; [1]): below the threshold | pKd (SHANK2, Q9UPX8; [1]): below the threshold | pKd (SHROOM2, Q13796; [1]): below the threshold | pKd (RGS3, P49796-9; [1]): below the threshold | pKd (PARD6B, Q9BYG5; [1]): below the threshold | pKd (MAGI1_4, Q96QZ7; [1]): below the threshold | pKd (PDZD2_5, O15018; [1]): below the threshold | pKd (GRIP1_1, Q9Y3R0; [1]): below the threshold | pKd (PARD3B_3, Q8TEW8; [1]): below the threshold | pKd (PTPN13_5, Q12923; [1]): below the threshold | pKd (LNX2_4, Q8N448; [1]): below the threshold | pKd (INTU, Q9ULD6; [1]): below the threshold | pKd (SCRIB_4, Q14160; [1]): 4.85 | pKd (CNKSR3, Q6P9H4; [1]): 4.24 | pKd (MPDZ_13, O75970; [1]): below the threshold | pKd (USH1C_3, Q9Y6N9; [1]): below the threshold | pKd (SNTB2, Q13425; [1]): 5.36 | pKd (USH1C_1, Q9Y6N9; [1]): below the threshold | pKd (PREX1_1, Q8TCU6; [1]): 4.75

B2: HPV73-E6, Q82005 (peptide)
chain: SGSRPSATVV
pKd (MAGI1_3, Q96QZ7; [1]): below the threshold | pKd (Inadl_7, Q8NI35; [1]): below the threshold | pKd (PARD3_1, Q8TEW0; [1]): below the threshold | pKd (SHROOM4, Q9ULL8; [1]): below the threshold | pKd (MAGI3_5, Q5TCQ9; [1]): below the threshold | pKd (MAGI3_3, Q5TCQ9; [1]): below the threshold | pKd (SHANK2, Q9UPX8; [1]): below the threshold | pKd (SHROOM2, Q13796; [1]): below the threshold | pKd (RGS3, P49796-9; [1]): below the threshold | pKd (PARD6B, Q9BYG5; [1]): below the threshold | pKd (MAGI1_4, Q96QZ7; [1]): below the threshold | pKd (PDZD2_5, O15018; [1]): below the threshold | pKd (GRIP1_1, Q9Y3R0; [1]): below the threshold | pKd (PARD3B_3, Q8TEW8; [1]): below the threshold | pKd (PTPN13_5, Q12923; [1]): below the threshold | pKd (LNX2_4, Q8N448; [1]): below the threshold | pKd (INTU, Q9ULD6; [1]): 4.58 | pKd (SCRIB_4, Q14160; [1]): below the threshold | pKd (CNKSR3, Q6P9H4; [1]): below the threshold | pKd (MPDZ_13, O75970; [1]): below the threshold | pKd (USH1C_3, Q9Y6N9; [1]): below the threshold | pKd (SNTB2, Q13425; [1]): 4.13 | pKd (USH1C_1, Q9Y6N9; [1]): below the threshold | pKd (PREX1_1, Q8TCU6; [1]): below the threshold

B3: SARS-CoV2-E, P0DTC4 (peptide)
chain: NLNSSRVPDLLV
pKd (MAGI1_3, Q96QZ7; [2]): below the threshold | pKd (Inadl_7, Q8NI35; [2]): below the threshold | pKd (PARD3_1, Q8TEW0; [2]): below the threshold | pKd (SHROOM4, Q9ULL8; [2]): below the threshold | pKd (MAGI3_5, Q5TCQ9; [2]): below the threshold | pKd (MAGI3_3, Q5TCQ9; [2]): below the threshold | pKd (SHANK2, Q9UPX8; [2]): below the threshold | pKd (SHROOM2, Q13796; [2]): below the threshold | pKd (RGS3, P49796-9; [2]): below the threshold | pKd (PARD6B, Q9BYG5; [2]): below the threshold | pKd (MAGI1_4, Q96QZ7; [2]): 3.75 | pKd (PDZD2_5, O15018; [2]): below the threshold | pKd (GRIP1_1, Q9Y3R0; [2]): below the threshold | pKd (PARD3B_3, Q8TEW8; [2]): below the threshold | pKd (PTPN13_5, Q12923; [2]): below the threshold | pKd (LNX2_4, Q8N448; [2]): below the threshold | pKd (INTU, Q9ULD6; [2]): below the threshold | pKd (SCRIB_4, Q14160; [2]): below the threshold | pKd (CNKSR3, Q6P9H4; [2]): below the threshold | pKd (MPDZ_13, O75970; [2]): below the threshold | pKd (USH1C_3, Q9Y6N9; [2]): below the threshold | pKd (SNTB2, Q13425; [2]): below the threshold | pKd (USH1C_1, Q9Y6N9; [2]): below the threshold | pKd (PREX1_1, Q8TCU6; [2]): below the threshold
